Data published in US20110098212A1.
Like-named read-outs stand apart in the source and are kept apart here.

Key:
[1] = molecular target: chemokine receptor CCR8 (human) (UniProt P51685); assay: cell-based or functional assay
[2] = molecular target: human chemokine receptor CCR5 (human), P51681
[3] = molecular target: human chemokine receptor CCR5 (human), P51681; assay: competition binding against 166 pM 125I-CCL3 on human PBMCs
[4] = molecular target: human chemokine receptor CCR5 (human), P51681; assay: cell-based or functional assay
[5] = molecular target: T1, chemokine receptor CCR1 (human), P32246; assay: cell-based or functional assay
T1 chain: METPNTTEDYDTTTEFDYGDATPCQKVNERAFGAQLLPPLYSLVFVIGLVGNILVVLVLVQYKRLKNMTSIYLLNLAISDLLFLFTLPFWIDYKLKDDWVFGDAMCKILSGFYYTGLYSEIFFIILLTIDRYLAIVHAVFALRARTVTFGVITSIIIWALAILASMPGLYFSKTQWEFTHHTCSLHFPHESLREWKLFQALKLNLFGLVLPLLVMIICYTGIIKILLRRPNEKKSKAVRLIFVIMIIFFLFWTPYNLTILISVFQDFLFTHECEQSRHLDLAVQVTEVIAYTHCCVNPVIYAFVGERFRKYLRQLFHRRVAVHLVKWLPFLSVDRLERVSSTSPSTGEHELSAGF

[6] = molecular target: chemokine receptor CCR4 (human) (UniProt P51679); assay: cell-based or functional assay
chemokine receptor CCR4 (human), sequence (P51679 whole entry): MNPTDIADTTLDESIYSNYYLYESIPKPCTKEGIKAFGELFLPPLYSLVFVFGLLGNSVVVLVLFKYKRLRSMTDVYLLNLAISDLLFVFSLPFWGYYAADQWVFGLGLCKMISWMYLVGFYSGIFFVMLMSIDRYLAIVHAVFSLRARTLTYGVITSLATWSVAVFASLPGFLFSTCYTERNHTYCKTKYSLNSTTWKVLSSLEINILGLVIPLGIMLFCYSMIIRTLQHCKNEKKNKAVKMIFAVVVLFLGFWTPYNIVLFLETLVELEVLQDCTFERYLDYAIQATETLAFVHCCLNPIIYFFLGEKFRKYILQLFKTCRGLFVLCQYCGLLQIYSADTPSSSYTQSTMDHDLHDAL

human chemokine receptor CCR5 (human), P51681, sequence (P51681 whole entry): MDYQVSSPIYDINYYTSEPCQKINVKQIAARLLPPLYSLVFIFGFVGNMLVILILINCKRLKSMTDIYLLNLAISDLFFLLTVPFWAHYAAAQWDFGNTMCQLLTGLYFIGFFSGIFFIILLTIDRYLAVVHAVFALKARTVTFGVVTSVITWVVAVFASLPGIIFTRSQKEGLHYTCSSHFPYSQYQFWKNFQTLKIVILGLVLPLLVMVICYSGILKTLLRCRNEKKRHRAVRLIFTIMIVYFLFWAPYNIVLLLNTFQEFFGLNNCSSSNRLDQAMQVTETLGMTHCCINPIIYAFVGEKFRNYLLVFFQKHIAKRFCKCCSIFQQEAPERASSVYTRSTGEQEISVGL
chemokine receptor CCR8 (human), sequence (P51685 whole entry): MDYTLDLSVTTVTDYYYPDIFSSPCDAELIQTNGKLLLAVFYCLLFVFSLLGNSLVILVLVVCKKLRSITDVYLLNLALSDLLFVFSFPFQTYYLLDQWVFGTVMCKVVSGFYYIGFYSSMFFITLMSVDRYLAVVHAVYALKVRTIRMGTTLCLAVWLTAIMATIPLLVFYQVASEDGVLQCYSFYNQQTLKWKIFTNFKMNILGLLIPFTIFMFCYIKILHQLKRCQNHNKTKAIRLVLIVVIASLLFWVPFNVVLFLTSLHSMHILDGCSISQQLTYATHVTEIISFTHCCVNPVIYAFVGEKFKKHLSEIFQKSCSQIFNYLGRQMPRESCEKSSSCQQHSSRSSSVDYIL

B1: CCL1/I309 (ligand, human, UniProt P22362 24-96, looked up)
chain: KSMQVPFSRCCFSFAEQEIPLRAILCYRNTSSICSNEGLIFKLKRGKEACALDTVGWVQRHRKMLRHCPSKRK
- EC50, calcium mobilisation in CCR8-CHO cells [1]: 3.87 nM
- chemotaxis of HUT78 cells, concentration of maximal efficacy [1]: 1 nM

B2: U83A-Npep, N-terminal spliced truncated form of U83A (peptide)
peptide: FICSSPDAELFSEKSRMSSSVLLGCLLCCMDWSAAVPV
modifications: not checked
- IC50 [2]: 8.3 nM
- IC50 [3]: 92 nM
- inhibition of HIV-1 YU2 infection at 50 nM [4]: < 50%
- reduction of HIV-1 JRCSF infectivity on CEM-NKR-CCR5-luc cells at 5 uM [4]: 90%
- blocking of CCL3 induced calcium flux in CCR1-CHO cells by 100 nM pre-treatment [5]: 50%
- blocking of the calcium response to 10 nM U83A in CCR1-CHO cells by 100 nM pre-treatment [5]: 50%

B3: CCL22 (ligand, human, UniProt O00626 25-93, looked up)
chain: GPYGANMEDSVCCRDYVRYRLPLRVVKHFYWTSDSCPRPGVVLLTFRDKEICADPRVPWVKMILNKLSQ
- chemotaxis of HUT78 cells, concentration of maximal efficacy [6]: 10 nM
